Experimental findings from article PMC7506995 (EMBO Molecular Medicine, 2020) are described below.

Assay [1] addresses T1, full-length recombinant mouse PrP (recPrP23-231) (Mus musculus, UniProt P04925).
T1 construct: source: recombinant, produced as described (Lysek & Wuthrich, 2004)
Description: ELISA. To be noted: both partners purified. (In general: ELISA stands for enzyme-linked immunosorbent assay.)

The target of assay [2] is T2, human recPrP_(23-230) (Homo sapiens, UniProt P04156).
The target in assay [3] is T2, human recPrP_(23-230). Description: ELISA. To be noted: both partners purified.
The target of assay [4] is T1, full-length recombinant mouse PrP …. Description: ELISA. The following applies: both partners purified. This is another data set of the same source.
For assay [5], the target named is T3, full-length recombinant mouse PrP (recPrP_(23-231)) (Mus musculus, UniProt P04925).
T3 construct: source: recombinant, produced as described (Lysek & Wuthrich, 2004)
As to the kind of experiment: SPR; […]; 25°C; 10 mM Tris/HCl pH 8.5, 500 mM NaCl, 3 mM EDTA, 0.05% Tween-20; 1:1 Langmuir fit; ProteOn XPR36. To be noted: both partners purified. On the technique in general: In SPR one partner is held on a chip, and binding of the other changes the refractive index at the surface.

The next assay deals with T4, peptide P17 (Mus musculus).
T4 chain: TWGQPHGGGWGQ
As to the kind of experiment: co-IP. The following applies: both partners purified.

Where two headings read alike, the source gives them in different places.

B1: Fab13 (Fab, V domains shown)
VH: QVQLVESGGGVVQPGRSLRLSCAASGFTFSSYGMHWVRQAPGKGLEWVAVISYEGSNKYYADSVKGRFTISRDNSKNTLYLQMNSLRAEDTAVYYCARVWSPDGYPGFDYWGQGTLVTVSS
VL: not shown
notes: source: E. coli BL21(DE3), purified (IMAC)
For the molecule B1, the binding result in assay [1] was “binds”.

B2: Fab53 (Fab, V domains shown)
VH: QVQLVESGGGVVQPGRSLRLSCAASGFTFSSYGMHWVRQAPGKGLEWVAVISYEGSNKYYADSVKGRFTISRDNSKNTLYLQMNSLRAEDTAVYYCARVYVYRSYRHSSGYGYPGFDVWGQGTLVTVSS
VL: not shown
notes: as for B1
Consider B2, for which, in assay [1], the binding result was “binds”.

B3: Fab61 (Fab, V domains shown)
VH: QVQLVESGGGVVQPGRSLRLSCAASGFTFSSYGMHWVRQAPGKGLEWVAVISYEGSNKYYADSVKGRFTISRDNSKNTLYLQMNSLRAEDTAVYYCARVYPYPYVYAESDGSYPGFDVWGQGTLVTVSS
VL: not shown
notes: as for B1
On to B3, for which the binding result in assay [1] is recorded as “binds”.

B4: Fab44 (Fab, V domains shown)
VH: QVQLVESGGGVVQPGRSLRLSCAASGFTFSSYGMHWVRQAPGKGLEWVAVISYEGSNKYYADSVKGRFTISRDNSKNTLYLQMNSLRAEDTAVYYCARVAYAVGSSYRSSSYSPGFDVWGQGTLVTVSS
VL: not shown
notes: as for B1
In the case of B4, the binding result in assay [1] is “binds”.

B5: Fab69 (Fab, V domains shown)
VH: QVQLVESGGGVVQPGRSLRLSCAASGFTFSSYGMHWVRQAPGKGLEWVAVISYEGSNKYYADSVKGRFTISRDNSKNTLYLQMNSLRAEDTAVYYCARVHPGVHYRPGGFDYWGQGTLVTVSS
VL: not shown
notes: as for B1
In the case of B5, the binding result in assay [1] is “binds”.

B6: Fab8 (Fab, V domains shown)
VH: QVQLVESGGGVVQPGRSLRLSCAASGFTFSSYGMHWVRQAPGKGLEWVAVISYEGSNKYYADSVKGRFTISRDNSKNTLYLQMNSLRAEDTAVYYCARHYGGRLDYWGQGTLVTVSS
VL: not shown
notes: as for B1
As for B6, the binding result in assay [1] is “binds”.

B7: Fab10 (Fab, V domains shown)
VH: QVQLVESGGGVVQPGRSLRLSCAASGFTFSSYGMHWVRQAPGKGLEWVAVISYEGSNKYYADSVKGRFTISRDNSKNTLYLQMNSLRAEDTAVYYCARHYGGWFDYWGQGTLVTVSS
VL: not shown
notes: as for B1
B7: the binding result in assay [1] is recorded as “binds”.

B8: Fab12 (Fab, V domains shown)
VH: QVQLVESGGGVVQPGRSLRLSCAASGFTFSSYGMHWVRQAPGKGLEWVAVISYEGSNKYYADSVKGRFTISRDNSKNTLYLQMNSLRAEDTAVYYCARHYGGQLDYWGQGTLVTVSS
VL: not shown
notes: as for B1
As for B8, the binding result in assay [1] was “binds”.

B9: BB_VH3-66 (antibody, V domains shown)
VH: EVQLVESGGGLVQPGGSLRLSCAASGFTVSSNYMSWVRQAPGKGLEWVSVIYSGGSTYYADSVKGRFTISRDNSKNTLYLQMNSLRAEDTAVYYCARSGSYGGYFDYWGQGTLVTVSS
VL: not shown
Regarding B9, the binding result in the assay with human recPrP_(23-230) [2] is “binds”.

B10: DW_VH3-53 (antibody, V domains shown)
VH: EVQLVETGGGLIQPGGSLRLSCAASGFTVSSNYMSWVRQAPGKGLEWVSVIYSGGSTYYADSVKGRFTISRDNSKNTLYLQMNSLRAEDTAVYYCARVSYGGYYFDYWGQGTLVTVSS
VL: not shown
B10: in the assay with human recPrP_(23-230) [2], the binding result is reported as “binds”.

B11: DK_VH3-07 Fab (Fab, V domains shown)
VH: EVQLVESGGGLVQPGGSLRLSCAASGFTFSSYWMSWVRQAPGKGLEWVANIKQDGSEKYYVDSVKGRFTISRDNAKNSLYLQMNSLRAEDTAVYYCARSYGGYFDYWGQGTLVTVSS
VL: QSALTQPASVSGSPGQSITISCTGTSSDVGGYNYVSWYQQHPGKAPKLMIYEVSNRPSGVSNRFSGSKSGNTASLTISGLQAEDEADYYCTSYTSSSTHVVFGGGTKLTVL
notes: source: expressed in bacteria (pPE2 vector), purified
Broadly, the EC50 is the concentration giving half of the maximal effect. For the molecule B11, in the assay with human recPrP_(23-230) [3], the EC50 stood at 62800 nM and the binding result was “no binding (tested: Fabs tested starting from 3 μM)”.

B12: BB_VH3-33 (antibody, V domains shown)
VH: QVQLVESGGGVVQPGRSLRLSCAASGFTFSSYGMHWVRQAPGKGLEWVAVIWYDGSNKYYADSVKGRFTISRDNSKNTLYLQMNSLRAEDTAVYYCAREHSYGGYFDYWGQGTLVTVSS
VL: not shown
Consider B12, for which, in the assay with human recPrP_(23-230) [2], the binding result is “binds”.

B13: Fab71 (Fab, V domains shown)
VH: QVQLVESGGGVVQPGRSLRLSCAASGFTFSSYGMHWVRQAPGKGLEWVAVISYEGSNKYYADSVKGRFTISRDNSKNTLYLQMNSLRAEDTAVYYCARHVSYGGYFDYWGQGTLVTVSS
VL: not shown
notes: as for B1
As for B13, the EC50 in assay [4] worked out at 24.9 nM.

B14: Fab71 (Fab, V domains shown)
VH: QVQLVESGGGVVQPGRSLRLSCAASGFTFSSYGMHWVRQAPGKGLEWVAVISYEGSNKYYADSVKGRFTISRDNSKNTLYLQMNSLRAEDTAVYYCARHVSYGGYFDYWGQGTLVTVSS
VL: not shown
notes: also called anti-OR_(51-91) Fab71; source: E. coli BL21(DE3), pPE2 vector, purified by IMAC (Ni-NTA)
For orientation: Kd means the free concentration of one partner at which half of the binding sites on the other are occupied at equilibrium, for simple one-to-one binding. The term koff denotes the first-order rate constant of dissociation. With B14, in assay [5], the Kd stood at 6.2 nM and the koff was found to be 0.00245 s⁻¹. In addition, the binding result with peptide P17 is recorded as “binds”.

B15: BB_VH3-21 (antibody, V domains shown)
VH: EVQLVESGGGLVKPGGSLRLSCAASGFTFSSYSMNWVRQAPGKGLEWVSSISSSSSYIYYADSVKGRFTISRDNAKNSLYLQMNSLRAEDTAVYYCARVSYGGYFDYWGQGTLVTVSS
VL: not shown
On to B15, for which, in the assay with human recPrP_(23-230) [2], the binding result was “binds”.
